± gives the uncertainty stated by the source.

The nature of this series: amyloid nucleation score (Sup35N fusion, yeast selection) (log enrichment); library NNK3; higher = more nucleation; inactive = no reads after selection. In short, it runs like this:
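Libraries of peptides of 20 random codons fused to Sup35N were expressed in psi-negative yeast and induced 24 hours with 100 μM copper sulfate. Selection was 7 days at 30°C on medium lacking adenine and uracil, and plasmid inserts were Illumina-sequenced before and after selection. Nucleation score is the DiMSum log enrichment of output over input reads, centred on the mode score of non-aggregating sequences, and sequences with under 100 input reads were left out.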
For the substance LLGSMVWGYSARYNFRVSQG, the amyloid nucleation score result was “inactive”. Then LLHCQCSC, with “inactive”; and LLKVSGYWLMLRGLTRKFMG, with -0.047 ± 1.1; and LLKVVD, with “inactive”. Then LLLSDFVSLLESPRVLHAQW, with “inactive”.

As to LLLTDSMSHLRFSHNSCMQQ, the amyloid nucleation score turned out to be 0.868 ± 0.17.

For LLMDGLIRFWS, the amyloid nucleation score entry was “inactive”. Then LLNCGLMLLRIDVCRATYYV, with 1.36 ± 0.14; and LLPLDSHYISSPFY, with “inactive”; and LLRGVRKE, with “inactive”.

As for LLSVICLTSIHF, the amyloid nucleation score came to 2.74 ± 0.067. Then LLTSLDPDYSSPWCYSVDIC, with “inactive”; and LLVKSYNLYIMFSPHL, with 1.68 ± 0.078; and LLVLPGGVSGVNLRDEWTDF, with “inactive”.

Take LLVLVV: the amyloid nucleation score result is “inactive”. Then LLVQLLLCKLKSMRLCCTVF, with “inactive”; and LLYENTVSSRGTVLRDHLS, with 0.456 ± 0.36.

Regarding LMAFNPMYSSQKYGTNYSFM, the amyloid nucleation score result is “inactive”. Then LMGTSIPSKQADLGTEFSNF, with “inactive”; and LMKWALNTELKMG, with “inactive”.

LMNYRMGWWFVCENYNEML came in with an amyloid nucleation score of 0.571 ± 0.17.

LMRTDNSSKNGSASGGGMSG: the amyloid nucleation score result was “inactive”. Then LMSFCHPDPIDFSVTGLCCR, with -0.208 ± 0.39. Then LMYRYVTLNAFRESISYISS, with “inactive”; and LNCIFLVKVIYWTRFTWSTY, with “inactive”; and LNCNSESMLPLYNMVWRNRN, with “inactive”. Then LNFVVYMIGGFCCHHFNVLF, with 1.3 ± 0.1; and LNGASADRRDWAEWLKADHC, with “inactive”. Take LNGIEGSGY: the amyloid nucleation score result was “inactive”.

As for LNKCLAGFIHMEVWILRMKL, the amyloid nucleation score result is “inactive”. Regarding LNLAKQCMLPSFPSYMVWYF, the amyloid nucleation score result was “inactive”. Then LNMARDYFVFQSPADPGCLV, with “inactive”; and LNMHFENTIRGVPYTLVSGR, with “inactive”; and LNMKTV, with -0.702 ± 1. Then LNRLSCFSCPLFV, with “inactive”. As to LNSFFAAIHILMGHFKRILS, the amyloid nucleation score entry was “inactive”. Then LNSLLY, with “inactive”; and LNTNWCSSK, with “inactive”. On to LNVVKNYIGLVRRHIIRVHF, for which the amyloid nucleation score result was “inactive”.

In the case of LNWLC, the amyloid nucleation score is 1.07 ± 0.086. Turning to LNWSKEAWCSYNILLNYGGW, the amyloid nucleation score result was “inactive”. Turning to LPAGVFTDSACVVVSANKAT, the amyloid nucleation score entry was “inactive”. Then LPAMIGIWCILTH, with “inactive”. In turn, LPGINCARHK returned an amyloid nucleation score of -0.918 ± 1.4. Then LPHPALKDFRISVRQLIWVR, with 1.04 ± 0.17; and LPLFRISAPMVMYVLLYVPW, with “inactive”; and LPLMDKLR, with “inactive”. Then LPNRYVMINGCIRQFAKCDI, with 1.58 ± 0.08; and LPSGFLGPLIPVESQIPRTQ, with “inactive”. Then LPVEMKLLIMMRVPSFHFRH, with “inactive”; and LPVHLDNMCFHVVRAEESRR, with “inactive”. Consider LQDIPLFFCCVLFCVATMAL, for which the amyloid nucleation score result was “inactive”. Then LQFPPNLSMLCKVTQPSNNW, with “inactive”; and LQILLSR, with “inactive”; and LQPKLGIT, with “inactive”.

LQRTWLKVFGASCFICDDFL returned an amyloid nucleation score of 1.99 ± 0.097. As for LRAEVLSSYVTWVHAEGPHC, the amyloid nucleation score result was “inactive”. As for LRAKFLILWSRFMQGMQGVT, the amyloid nucleation score entry is “inactive”. Then LRCHLRKGSRISRSL, with “inactive”; and LRCKKRLVRFLHVHEFAVEY, with -0.211 ± 0.52. Then LREPRGGSWRRLDCFKCRLG, with “inactive”; and LRFTRRFYSRGWVRW, with “inactive”; and LRFVHDVLDFGASMSLRRK, with 0.606 ± 0.1. The substance LRGGMIEPNTRRYS displayed an amyloid nucleation score of 1 ± 0.15.

LRGVGDRIGNTSGISGLWPG: the amyloid nucleation score was found to be 0.759 ± 0.19. For the substance LRHHSSSVAPVRVGILRCNS, the amyloid nucleation score entry was “inactive”. Then LRMVRSYVLSNGCL, with “inactive”; and LRPVRYRLCVRFNWMCVRCK, with -0.582 ± 0.95. Then LRQSTSMPCNFCIYLEERKD, with 1.43 ± 0.073; and LRRQSVMWDKSYAGTWILES, with “inactive”; and LRSFKSKICVERLRDEIILL, with “inactive”.

With LRTSVFRVLVNSILVKNLIS, the amyloid nucleation score entry was “inactive”. Then LRTTDSGSGIYLTNSVHGFV, with “inactive”. Consider LRVFWRTFCVSWSECNKMLE, for which the amyloid nucleation score result was “inactive”. Then LRVYYYNMILDDFCVFVLEG, with 1.48 ± 0.13. Then LRWIGH, with “inactive”; and LRWMFPLPRNVSHCSLA, with “inactive”; and LRWSIEGFLVSMMKY, with “inactive”. Then LSAIFLCLSVCLGLHCVGLP, with “inactive”. Take LSCSQKV: the amyloid nucleation score result was “inactive”. As for LSDSY, the amyloid nucleation score entry is “inactive”. Then LSECRKD, with “inactive”. Take LSELYHTFYSVVNGGHVLMI: the amyloid nucleation score entry was “inactive”. Regarding LSFPYMMTIFCATRFTDPLM, the amyloid nucleation score result is “inactive”. Then LSIGFNLWSKLKYSRKVSGM, with “inactive”; and LSISIMWCFIFGYIFMCSRC, with “inactive”; and LSISYSIGGDGDMIGNAACV, with “inactive”. For the substance LSKLPTKMACPLMVRS, the amyloid nucleation score was 0.928 ± 0.24.

LSKQIVIRINSNNCNGSVFF registered an amyloid nucleation score of 2.7 ± 0.049. Then LSLATTSTLTLPMWKGTRLN, with 0.744 ± 0.2; and LSLVDEFQSPLLQLLFVQVA, with “inactive”. Then LSLVQGR, with “inactive”. Then LSMCSLHRNTVFWFRISLMI, with “inactive”. For the substance LSPGTFCRVDSTPVWVNACP, the amyloid nucleation score was -0.294 ± 0.47.

LSRFQVGFHQIDIMRGDVWK: the amyloid nucleation score result is “inactive”.

For LSSCLSRI, the amyloid nucleation score entry was “inactive”. Substance LSSFHHRQVLHRAVAKPFTA had an amyloid nucleation score of 0.245 ± 0.75. Then LSTNTERAFTAWNVIGELGD, with “inactive”; and LSVNYKLGQYRTLWFHHSLG, with “inactive”. Then LSVVTSTHEDASSLNTTRWM, with “inactive”; and LSYKIIYTGIGCEYAYGFIE, with “inactive”; and LSYSAGEIRCVGSCWANESL, with “inactive”. As for LTCWSVVMFTCHP, the amyloid nucleation score result was “inactive”. Then LTHRAVGLSNVNTPPSFCMR, with 0.842 ± 0.2; and LTICAFVVYVFIYKYKMGVM, with “inactive”. Then LTIVAYVVATYSFCWWISVG, with “inactive”; and LTKCPCRLLCRLRSRARRMG, with -0.328 ± 0.98. Then LTLLCSDECWVFMSMGDRTF, with “inactive”; and LTQMCFTTSVFLRLAWVPFK, with “inactive”. Turning to LTSESSDEICGGRATSVLCL, the amyloid nucleation score entry is “inactive”. Then LTSMNSGLSYLKLFASQNLR, with “inactive”; and LTSPFDPISLPKS, with “inactive”; and LTTRGRNTRSEDMGEPGLWA, with “inactive”.

In the case of LTWKFSATCIGVKT, the amyloid nucleation score result was “inactive”. Then LTYHLFYMVADACVIWYDCS, with 0.833 ± 0.32. Then LTYTHLCEPSEFR, with “inactive”; and LVCDHGSCVKMVIMTDFMSS, with “inactive”; and LVCHFLDEDCLFACILQNMR, with “inactive”. Then LVFFFLWHSHENFNHDLVSK, with “inactive”. LVFMQRNIENISCCVTLYYQ displayed an amyloid nucleation score of 2.51 ± 0.071. Then LVGGTTLLIPVCS, with “inactive”. Then LVGLGLGFCYLIKTFVTLLV, with “inactive”; and LVIASGRVIVIVCYV, with “inactive”. Then LVIIQCSNRGVSKYRLVGTD, with 1.82 ± 0.071; and LVILMSSHIEFLGTYFNEKL, with “inactive”. As for LVILVVDSRRYDMCLSNRDF, the amyloid nucleation score result is “inactive”. Then LVKLCIFGLRDGYTVFEYMG, with “inactive”. For the substance LVKTCRYRGSDLSVLVGVRI, the amyloid nucleation score entry is “inactive”.

Regarding LVLSWVITEVMDRVWRGSRG, the amyloid nucleation score entry is “inactive”. Then LVNLTVTYISQYFPFYDSPT, with 2.92 ± 0.062.
